test system: Saccharomyces cerevisiae; test: transcriptional activation domain activity (GFP:mCherry ratio, weighted mean of sorted bins, harmonized to initial dataset scale) (arbitrary fluorescence ratio units); higher = stronger transcriptional activation; conditions: beta-estradiol 1 µM; induction time 4 h
Protocol: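 53-aa protein tiles (fungal proteins plus yeast TF control tiles) fused C-terminally to a DBD-estrogen-binding domain-mCherry synthetic TF, integrated in S. cerevisiae (URA3 locus) with a GFP reporter. Cells were induced with 1 uM beta-estradiol for 4 h at 30 C, FACS-sorted into 8 bins by GFP:mCherry ratio and barcodes sequenced. Activity is the read-weighted mean bin fluorescence (GFP:mCherry), averaged over barcodes (median 12); tiles under 50 reads were discarded. New active-learning values were harmonized by linear fit onto the scale of the initial (Hummel et al.) dataset. The assay saturates at low and high signal.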

Point of comparison: “AAGGSSSQAQITVNPGAKAEEEAEEDEGQLVQRMARRGIKSHVFVGSEIVQIP”, “transcriptional activation domain activity” value 33900. Against it:
- AAEEEDEEAKPLPAKKKRSSKKRKAEDAAEPEEKPAAKKKTAKVSGRGKKAAD — lower, 16300
- AAEEEEAEAQAEKEEAEAEEAEAEEELEEAQAEEAEAEEAEAEEAEAVRGAMG — lower, < 6570
- AAEEKEGYEDEAEEGEDEEEDEEDPEVRRKEELRARMAKMSAGMGGMGGMGMM — lower, 10100
- AAEGGDSVAKSSPAKPKQSKQSKKRPRDEDGEGAGEAPASKKQPKAKAKAAKA — lower, 26100
- AAEKPAEEQPAETLVVEAKEVEEPKAAAKKGKKKAAKKEAEKVVEEQAVETPA — lower, 32500
- AAEPAPEPVVEKAPAPKKRAGRQPKAETVVEDAPAPKKRGRGARKSEPAAVAE — lower, 21000
- AAERRQQGHRAKENEKRRQEEARRGRKERGAGGGKAKAGRKPAGQPRRRRSRE — lower, 32900
- AAEVKQAKEETGEKAQKKEKKEKEKKAEAAEGGKKKEKAAGGGKPAAEEAAGE — lower, 24500
- AAFFFALLWVVFRSSWPSPLFFFLFFFVGLVLLAFLAFGFPFARFLLPLGVFF — lower, 26000
- AAFSGEGDPWPGVAREIDENGENVGLAASRPAPAFLRVLTAVRVRVRIAFAFV — higher, 54500
- AAGAAAPAKAAPAGARKARKGAAAAAPAAAPAAGAAPAQGAAAKKGGRLGGAA — lower, 30000
- AAGAAGAKASKAPKASKAAKAPKASGAAGAKKGGKKAGKGAASSGAAKAPAAT — higher, 42400
- AAGASTTAQVSKKRQVLLRVNNRTYTRIDCIGRGGSGKVYRVSAESGKMLALK — higher, 62100
- AAGETVHFSARAEVLTSKFGRTSKLSPRFIILTEKAVYILLAAARDGRVVVQL — higher, 37700
- AAGGGGTGAGGAAGAARAAGHGAVGAAAGDGEQREGRAGRGRGHGRGVEGGRG — higher, 59200
- AAGKAGKGGKGAGKAGKGAGKGKGGKRGGKGGKGAKAAGKGAAKAASQAAAAS — higher, 37100
- AAGPGNNDLDDTDTDNQQFFLSDMNLNGSSVFENVFDDDDDDDDVETHSIVHS — lower, 28900
- AAINGSANGKRRRTKEDGGEKADGRAGPKSENVVLQKTIEHIHGLLQHKSVLL — higher, 45900
- AAKALCKLQEAILKTYGMPGLLCMLRGISFHIYAVLTCTMLHLVAITCPDPDI — lower, 32900
- AAKDRRHLRSRSQATYLILLGIMLWGLLRWRKTNVFKLWHLLVRQGACWILIV — higher, 60400
- AAKGKAAAGGGTKKKGTAGAEAETPEMATPAPEGAPNAPAKKRAKKATAAAAA — higher, 36400
- AAKMAREYKKGERQAGRMRTEKGERGEEDGREREGTRRRREKEKEKNKEKGPR — higher, 46000
- AAKPAPKKAPGRPKKAAAEPEPASEPTESEEPKPKKAGGRPRKAAAPAAEPEA — higher, 40700
- AAKPKDRIKYWNIVPGDRVRITGDKEGKLLEVAKINKLSNRVYLKGATTKAGS — higher, 44400
- AAKRKTRADEHEEDEEEEHREATVVRRARGRPRKVEAPEPEAPVRATRGRATK — lower, 17000
- AAKSKGRTSRASRTRGEKSDSKEEKKRTSSLKEKRSSSEEKKSRSSKSAGKEK — higher, 38300
- AALALKFRYRIDGSTEDRWISVSRMLNKIAHWYLPQKYTFLHPSGIVSYAVIR — higher, 66900
- AALFLSVQHKLFYLVMSLARFNLYFLSYSFLLLHAKRRWHWYAEIASIMLFWS — higher, 50400
- AALLHLIILISFGNLLLVPKCCLLVHTLRFWCRVFFLNPSLVLSFALSTFIYS — higher, 58900
- AAMLLQRVDPNILGNAANVDKTLIHSMAWCLAKIMLFFDPSYITGLLQAYFKL — higher, 46300
- AANFHDTHGFGSMPQHLKKKPKAEGEGAGKAEEVKAEVSATAEAEESATAKAE — higher, 34800
- AANKNAKRREARKKAAAAAGEGNEEDKGASAETKEDKSAEVKEKENVKPASEK — lower, 29600
- AAPAAAAAQAAAPVSPAVKAETPVEAPKTIPAAAAPAPAPAKTEAAPAAEPVA — lower, 27500
- AAPAAADPTPKKRGRPPRVSGAAEVAAAPEPAAEQPKKGRGRKAAEPAPEPVV — lower, 23100
- AAPAAPADDGFQSVPGRNRGQREGGGNYRSRGGYRGEGRGRGGYRGEGRGRGR — higher, 37000
- AAPAASKAAPAAASPEKKEKAKPGKKEREAAKAAAAAAPPKASASSSSAPEQA — lower, 18300
- AAPAPAKRTAAAAGLEEAAASGELSKSQKKKLNKKLKGENGEAAAAPVAAAPS — lower, 30900
- AAPKAKATTAKAKATTTKKATTAKASTTKKAAAAKPKANASKPRKAAAATAAA — higher, 38600
- AAPSKPASPTKAAAPVSKPVTPAPQKAAPVQQQSKPATPAPQQKAATPAPKTA — lower, 29500

From the supplement of paper PMC12636428
